{"source": "paper doi:10.1101/2025.10.22.683813", "about": "(bioRxiv, 2025)", "proteins": {"B1": {"name": "NC-4 nucleocapsid subunit (other)", "chain": "MGNARTRRRERRAEKQAQWKAANAGAGAGAMATPHFDYNASVVSKGLANLSLELRKPVSFDIITADTLEQAIERAGTKHGNKGWEAALSAIEMANLYKSLRGTEHHHHLHGSSIEIYEGKLTAEGLRFGIVASRFNHTLVDRLVEGAIDCIVRHGGRGEDITLVRVPGAWEIPVAADELARKEDIDAVIAFGDLIRG"}}, "molecular_target": "the molecule itself", "experiment": "SEC"}
{"protein": "B1", "values": [{"measurement": "binding result", "value": "binds"}]}
